# Target: human FcRn fused to a His-tag and glutathione S transferase (FcRn-His-GST), complex of FcRn heavy chain with beta-2-microglobulin (human) (UniProt P55899)
# Test: AlphaScreen competition
row,Substance,FcRn Binding ratio Variant / WT
1,A327D (antibody),1.01
2,A327L (antibody),1.55
3,A327M (antibody),1.08
4,A327Y (antibody),1.23
5,A330F (antibody),25.3
6,A330G (antibody),1.01
7,A330H (antibody),9.87
8,A330P (antibody),5.48
9,A330V (antibody),1.78
10,A330W (antibody),1.02
11,A330Y/I332E (antibody),1.53
12,D221K (antibody),5.66
13,D221Y (antibody),2.74
14,D249Y (antibody),2.57
15,D265F/N297E/I332E (antibody),1.38
16,D270I (antibody),1.23
17,D270S (antibody),1.03
18,E233G (antibody),2.09
19,E233M (antibody),1.13
20,E233S (antibody),1.1
21,E233Y (antibody),1.86
22,E258Y (antibody),1.07
23,E269I (antibody),1.26

row,Substance,FcRn Binding ratio Variant / WT
1,E269K (antibody),1.23
2,E269V (antibody),1.38
3,E269W (antibody),1.19
4,E269Y (antibody),24.8
5,E272D (antibody),1.37
6,E272H (antibody),1.45
7,E272I (antibody),1.05
8,E272L (antibody),1.81
9,E272T (antibody),2.46
10,E272V (antibody),1.77
11,E272Y (antibody),2.08
12,E283P (antibody),1.33
13,E283R (antibody),1.86
14,E283Y (antibody),1.42
15,E294G (antibody),1.25
16,E294K (antibody),1.16
17,E318R (antibody),1.17
18,E318Y (antibody),6.14
19,E333M (antibody),5.46
20,F241E (antibody),1.09
21,F241W (antibody),1.7
22,F241W/F243W (antibody),1.12
23,F241W/F243W/V262A/V264A (antibody),1.91

row,Substance,FcRn Binding ratio Variant / WT
1,F241Y/F243Y/V262T/V264T (antibody),1.89
2,F243E (antibody),1.14
3,F243W (antibody),4.63
4,G236A (antibody),1.75
5,G236D (antibody),1.53
6,G236E (antibody),1.46
7,G236H (antibody),1.48
8,G236I (antibody),1.33
9,G236Q (antibody),1.46
10,G236V (antibody),1.35
11,G236W (antibody),1.52
12,G236Y (antibody),1.52
13,G237D (antibody),1.84
14,G237E (antibody),1.36
15,G237H (antibody),1.48
16,G237I (antibody),1.01
17,G237M (antibody),73.4
18,G237N (antibody),1.39
19,G237P (antibody),2.8
20,G237R (antibody),1.36
21,G237S (antibody),1.29
22,G237T (antibody),1.32
23,G237W (antibody),1.2

row,Substance,FcRn Binding ratio Variant / WT
1,G237Y (antibody),1.92
2,H224E (antibody),5.11
3,H268M (antibody),1.88
4,H285D (antibody),2.4
5,H285K (antibody),1.76
6,I332D (antibody),1.75
7,I332E (antibody),1.32
8,I332N (antibody),3.2
9,I332Q (antibody),1.2
10,I332T (antibody),1.02
11,I332V (antibody),59.3
12,I336E (antibody),8.11
13,I336K (antibody),12.1
14,K222Y (antibody),1.31
15,K246Y (antibody),2.47
16,K274E (antibody),1.05
17,K274F (antibody),1.02
18,K274G (antibody),1.04
19,K274I (antibody),1.08
20,K274M (antibody),1.01
21,K274N (antibody),1.26
22,K274T (antibody),1.08
23,K288Y (antibody),1.1

row,Substance,FcRn Binding ratio Variant / WT
1,K320H (antibody),1.13
2,K320L (antibody),1.07
3,K320N (antibody),2.01
4,K320W (antibody),1.11
5,L234D (antibody),1.54
6,L234G (antibody),2.54
7,L234H (antibody),1.48
8,L234I (antibody),1.26
9,L234I/L235D (antibody),1.03
10,L234N (antibody),1.06
11,L234R (antibody),1.19
12,L234V (antibody),1.45
13,L234Y (antibody),1.9
14,L235N (antibody),1.32
15,L235Q (antibody),1.67
16,L235S (antibody),1.51
17,L235T (antibody),1.65
18,L328A (antibody),1.32
19,L328D/I332E (antibody),11.8
20,L328E/I332E (antibody),1.44
21,L328F (antibody),2.06

# The next lines start with the values.
row,FcRn Binding ratio Variant / WT,Substance
1,1.29,A327H (antibody)
2,1.01,A327K (antibody)
3,1.5,A330L/I332E (antibody)
4,2.06,D249Q (antibody)
5,1.74,D265G (antibody)
6,1.18,D265P (antibody)
7,1.16,D265R (antibody)
8,1.05,E233R (antibody)
9,1.19,E233T (antibody)
10,1.64,E233W (antibody)
11,1.51,E269F (antibody)
12,1.34,E269G (antibody)
13,1.11,E269M (antibody)
14,1.23,E269P (antibody)
15,1.31,E269S (antibody)
16,2.17,E272P (antibody)
17,1.83,E272R (antibody)
18,1.82,E272W (antibody)
19,6.25,E283H (antibody)
20,2.74,E283K (antibody)
21,1.09,E294I (antibody)
22,3.61,E318L (antibody)
23,1.96,E333F (antibody)
24,1.03,E333L (antibody)
25,1.99,F241L (antibody)
26,1.37,F241L/V262I (antibody)
27,1.35,F243L/V262I/V264W (antibody)

row,FcRn Binding ratio Variant / WT,Substance
1,1.75,G236F (antibody)
2,1.38,G236K (antibody)
3,1.6,G236M (antibody)
4,1.89,G236N (antibody)
5,1.41,G236P (antibody)
6,1.56,G236T (antibody)
7,1.47,G237K (antibody)
8,5.91,G237L (antibody)
9,1.39,G237Q (antibody)
10,1.33,G281D (antibody)
11,1.46,G281Y (antibody)
12,1.68,H224Y (antibody)
13,1.71,H268E (antibody)
14,1.93,H285E (antibody)
15,1.38,H285Q (antibody)
16,1.33,H285W (antibody)
17,1.25,H285Y (antibody)
18,1.24,I332H (antibody)
19,1.43,I332Y (antibody)
20,1.25,L234E (antibody)
21,1.46,L234F (antibody)
22,1.31,L235V (antibody)
23,1.02,L235Y (antibody)
24,1.16,L328G (antibody)
25,1.16,L328H/I332E (antibody)
26,2.21,L328I/I332E (antibody)
27,1.18,L328N/I332E (antibody)

# From US20090041770A1
